Assay results as given in patent US11891642B2, “Biocatalytic techniques” (HYPHA DISCOVERY LIMITED, priority 2018, dated 2024).
Where a chain is given by its changes, count along the chain named. In names and notes the source's numbering stands.

B1: SriC12-SriF05: cytochrome P450 SriC12 (SEQ ID NO: 29) co-expressed with ferredoxin SriF05 (SEQ ID NO: 30), native coding sequence (protein, listed as Streptomyces rimosus)
chain 1: MTEALPFPQDRTCPYDPPAGYQPLRDSRPLSRVTLYDGRPAWVVTGHAESRALLTDPRLSADRQNPAFPSPAPRFETLRKVRTPLLGVDDPEHNTQRRMLIPSFSVKRAAALRPRIQEIVDRLLDAMEQQGPPAELVSAFALPVPSMVICALLGVPYADHELFEGLSRTLLQSADPQEVTEARDKLEDYFTALVERKRKEPGDGLLDELIAERLDSGELGHRELVRMAMLLLVAGHETTSNMLSLGTFTLLEHPEQFAALRADPSLLPAAVEELLRFLSIADGMVRVATEDIEIGGVTIRADDGVIFSTSVVNRDGAAYASPDTLDWERSARHHVAFGFGVHQCLGQNLARAEMEIAFGALFARFPGLRLAVPAAEIPVKPAHALQGLVELPVTW
chain 2: MKIDIDTSVCIGSGQCVLTAPGVFTQDDDGFSTLLPGREDGTGDPLVREAARACPVQAIAVTDD
B2: Mutant 18 R63W L171A: R63W L171A mutant of codon optimised cytochrome SriC12, SEQ ID NO: 253 (protein)
chain: B1 chain 1 with R63W, L171A
modifications: R63W L171A mutant of SriC12
B3: Mutant 14 L230I: L230I mutant of codon optimised cytochrome SriC12, SEQ ID NO: 237 (protein)
chain: B1 chain 1 with L230I
modifications: L230I mutant of SriC12
B4: Mutant 17 R63W R74Y: R63W R74Y mutant of codon optimised cytochrome SriC12, SEQ ID NO: 251 (protein)
chain: B1 chain 1 with R63W, R74Y
modifications: R63W R74Y mutant of SriC12
B5: Mutant 10 L171I: L171I mutant of codon optimised cytochrome SriC12, SEQ ID NO: 235 (protein)
chain: B1 chain 1 with L171I
modifications: L171I mutant of SriC12
B6: SriC51-SriF08: cytochrome P450 SriC51 (SEQ ID NO: 109) with ferredoxin SriF08 (SEQ ID NO: 110) (protein, listed as Streptomyces rimosus)
chain 1: MTTADTMPLAYPFNDADGLALSETYEQVRDRPGLLRVQMAYGEPAWLATRYADARLVLGDRRFSRAEGLERDEPRQSEGQRDSGILSMDPPDHTRLRTLVAKAFTVHQVEKLRPWVRELTHGLIDELEAAGPPVDLVDRYALPIPVAVICRMLGVPEEDRPKFRTWSDAALSTSSLTAEEFEANREELRAYMAKLIEDHRTTPRDDLMTRLIEARDVGDRLSELELIDLCVGILVAGHETTATQIPNFVLSLLDHPGELERLRAEPALIKSAVEELLRFVPLGSGAGFPRYATEDIEVGGTLVRAGEPVLVAVGAANRDALRFDEPGTLNITRDGNQHLGFGHGVHHCLGAPLARLELQEALIALITRFPKLHVAGDVVWKDQMLVRGPRVMPVGW
chain 2: MTWKAAIDGQQCMASGMCAGIAPDLFVLDGPHARPLQEEIPEDEAALDAADSCPAMAILIRDGEKVVGPRP
B7: SriC22: cytochrome P450 from Streptomyces rimosus NRRL-2234, SEQ ID NO: 51 (protein, listed as Streptomyces rimosus)
chain: MTTSPTESTTATPPDSTTASAPGTPPDALPSYVGLHPGEPNVMEPELLNDPYAGYGKLREQGALVRGRFLDDSPVWLVTRFDVVREVMRDPRFINNPSRLPGRTEKDPRAQLIELFGIPDHMARYLVDTILTSDPPDHTRLRRLVSRAFTARRIQDLRPRVEAITDELLDRLPAHAQDGVVDLVEHFAYPLPITVICELVGIDEEDRPLWRQFGADLTSLEPKRIGATVPAMVEHIHKVIGERQSALRDDLLSALIRARDDDGGRLSETEMVTMVLTLVLAGHETTAHLISNGTLALLTHPDQRRLLTEDPGLLPRAVHELMRWCGPIQATQLRYASEDVEVAGTQVHKGDALMFSLVAANHDPRHYTEPEKLDLTRQPAGRAEDHVGFGHGMHYCLGASLARQEGEVAFGKLLARYPEVALALPHEQLEEQERIRQPGSWRLRRLPLRLRPED
B8: SriC14-SriF06: cytochrome P450 SriC14 (SEQ ID NO: 34) with ferredoxin SriF06 (SEQ ID NO: 35) (protein, listed as Streptomyces rimosus)
chain 1: MTETSTAFPAQDAPAFPSDRTCPYGLPETYARLRDSEDALRPVTLFDGRTAWVVTKHETARTLLADPRLSSNRTHPDFPLTSPRLAGLRDRRPAFISMDPPEHGPRRRMTISEFTVKRIKGMRPDIERIVHGFLDEMLAAGPPADLVSRFALPVPSMVICQLLGVPYADHDFFQDASRRLVQSTSAEEATGARDDLERYLDGLITTLESEPGPGLLGALVTRQLADGAIDRDELISNALLLLVAGHETTASMTSLSVITLLEHPEQHAALRDDPSLIPGAVEELLRYLAIADVAGARVATADIEVDGQVIRAGEGVIVVHSIANRDAGVFENPDTFDIHRSARHHLSFGYGVHQCLGQNLARLELEIILSALFERIPTLRLATPVERLTLRPGSTIQGVNELPVTW
chain 2: MHVTADRDVCVGAGMCALTAPGVFDQDDDGLVTVLTSDIGENDRDAVREAGMLCPSGALRVTE
B9: SriC20: cytochrome P450 from Streptomyces rimosus NRRL-2234, SEQ ID NO: 47 (protein, listed as Streptomyces rimosus)
chain: MPEIIDLGAYGPDFVADPHPYYAKLRAQGPVHRVRAPEMEPEFPQAWLIVGYDEARAVLADNRFAKDWSRANGSLADSEVLAEWQLMNMLDADPPQHTRLRKLVAREFTTRRVEALRPRVQQITDELLDAMLAAPDGRADLVEALAFPLPMTVICELLGVPDIERDTFRAWSNELVSPTDNEATMTAAREMAAYLDGLIESKRSSPGEDLLSALVRTSDEDGDQLSRQELLGMAFLLLVAGHETTVNLISNGVRALLQHPAQLAALRADPSLLDNAVEEMLRYDGPVETATWRFTAEPVGIGGVEIPAGEIVLVGLAGADRDPERFEAPDTFDITRETRGHVAFGHGIHFCLGAPLARVEGRIAVRTLLDRCPDLALDTAPEALTWRAGMTIRGPQHLPVRWR
B10: SriC01: cytochrome P450 from Streptomyces rimosus NRRL-2234, amino acid sequence SEQ ID NO: 2 (protein, listed as Streptomyces rimosus)
chain: MTETIPFEAVDGAVRPSEEVPVVDLSATGLSDTPLQQAMGLAREHGAVYRRRLHGHEALLVSSLELVTELADENRFAKGVSVALENVREFAGDGLFTAYNDEPNWAKAHDILMPAFALGSMRTYHPAMLKVARRVIGSWDRRAADGTPVDVPDDMTRMTLDTIGLAGFGFDFESFSRATMHPFVEAMVRCLEWSMKRLGREPDGDYTEEDAAFRADADYLASVVDEVIASRTGADGTPGEEAGDDLLGLMLGATHPADGTTLDLANIRNQVITFLIAGHETTSGALSFALYHLLKDPAALRLAQREADELWGDQTDPDPSFEDIGRLPYTRQVLNEALRLWPTAAAFSRQARTDTLLGGRIPLKAGQLVTVLTPMLHRDPAWGDNPELFDPTRFAPEAEAARSPHAYKPFGTGERACIGRQFALHEATMLLAMLVHRYRLIDHSDYRLSIKETLTLKPDGFTLTLARRTPADRAGLRAALAVLPGGAAEPDGTESGTDDGLPTRVRQDTALLLLHGTNYGTCRDFAERIADEATGLGFTTEVAPLDAATGALPTDRPVVIVTASYNGQPTDDAARFVEWLSGDEARAEGVPYAVLGVGDRNWAATYQRVPTLLDERLAALGAERLLPRGEADASGDLNGAVKAFTATLRTELLVRYGDPATIGASTPADATDASYTVREVTGGPLDALAARHGLQPMTVTEAYDLTAPGYPRVKRFLRLTLPEGVTYRTADHLAVLPANGAAAVERAAQVLGVSLEAVLDIRAGAGRGGRDTLPVDRPLTVRQLLTHHLELNARPTAAQRAVLADHNPCPPERAALQAIPDDDPRTTLDLIEEHPALRGVLPWPVLLDLLPALRIRHYSLSSSPAADPRHADLMVSLLPGGTGSGHLHTLRPGDTVLARVQPCREAFRLDPADPTPVILVAAGTGLAPFRGAVADRLAATQLAPALLYFGCDALEADYLHAEELQAAEAAGAVSLRPAFSARPVDGCRYVQHRIAAEAEEVGALLDAGARVYVCGDGNRMAPGVRAAFRELYAARTGATQEEAEVWLRELTAAGRYVEDVYVTG

assay: Concentration of cytochrome P450 in cell-free extract by carbon monoxide difference spectrum (Omura and Sato); settings: effect of codon optimisation, expressed in E. coli BL21 (DE3), value ± SD
Protocol: Measurement is performed according to the method of Omura and Sato et al. (J Biol Chem, 239. 1964, 2370). That is to say, cytochrome P450 is analyzed quantitatively using the following formula, based on the difference in the absorbance of the reduced CO versus the reduced difference spectrum at 450 nm and 490 nm.
Measurement of the concentration of cytochrome P450 were performed according to the method of Omura and Sato et al. (J Biol Chem, 239. 1964, 2370). Cytochrome P450 concentrations of cell-free extracts of induced E. coli BL21 (DE3) Rosetta2 & Tuner cells harbouring either pHD05-SriC01, pHD02-SriC12-SriF05, pHD05-SriC14-SriF06, pHD05-SriC20, pHD05-SriC22 or pHD05-SriC51-SriF08 are shown in Table 2. Carbon monoxide difference spectra for P450SriC01, P450SriC12, P450SriC14, P450SriC20, P450SriC22 and P450SriC51 are shown in FIGS. 9, 10, 11, 19, 20 & 21 respectively.
The native and codon optimised P450sriC12 and ferredoxinsriF05 in pHD02-SriC12-SriF05 and pHD02-SriC12CO-SriF05CO respectively were introduced into E. coli BL21 (DE3). The recombinant strains were cultured and proteins were induced as in Example 2. The cell-free extract material was obtained as in Example 3 and carbon monoxide difference spectrums were measure to calculate the concentration of cytochrome P450.
The resulting plasmids containing the new mutants genes were transformed into recombinant E. coli strains for expression as described in Example 1, cultured and induced as described in Example 2, extracted and processed as described in Example 3 and tested for biocatalytic activity as described in Example 5 above. The carbon monoxide difference spectrum result of R63W mutant of codon optimised P450SriC12 is shown in FIG. 14 and the cytochrome P450 concentration of mutant P450SriC12 are shown in Table 5.

| Molecule | P450 concentration |
| --- | --- |
| B1 | 3.6 ± 0.3 µM |

same assay, conditions: mutant P450SriC12 expressed in E. coli BL21 (DE3)

| Molecule | P450 concentration |
| --- | --- |
| B2 | 22.4 µM |
| B3 | 3.5 µM |
| B4 | 27.6 µM |
| B5 | 12.4 µM |

same assay, conditions: native enzymes expressed in E. coli BL21 (DE3) Rosetta2 & Tuner cells, cell-free extract

| Molecule | P450 concentration |
| --- | --- |
| B6 | 25.0 µM |
| B7 | 18.4 µM |
| B8 | 15.4 µM |
| B9 | 18.8 µM |
| B1 | 3.6 µM |
| B10 | 33.5 µM |
